Measurements published in the supplement of paper PMC9112550, “Optimization of the antimicrobial peptide Bac7 by deep mutational scanning” (BMC Biology, 2022).

test system: Escherichia coli TOP10; assay: shrunken log2 fold change of peptide-encoding DNA abundance (4.5 h post-induction vs induction); higher = less antimicrobial activity (less host growth inhibition); conditions: time post-induction: 4.5 h; library: site-saturation at positions 5, 18, 19, 20
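Also: peptides expressed intracellularly from a pBAD plasmid library in pooled LB shake-flask culture, induced with 0.3% L-arabinose, DNA abundance read by NGS, three biological replicates, DESeq2 with apeglm shrinkage.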

Sequence | shrunken log2 fold change
RRIRSRPPRLPRPRPRPNMNPRP | -0.573
RRIRSRPPRLPRPRPRPNMRPRP | 0.43
RRIRSRPPRLPRPRPRPNNTPRP | -0.574
RRIRSRPPRLPRPRPRPNQWPRP | 0.0342
RRIRSRPPRLPRPRPRPNRNPRP | -0.163
RRIRSRPPRLPRPRPRPNSCPRP | -0.121
RRIRSRPPRLPRPRPRPNSSPRP | -0.31
RRIRSRPPRLPRPRPRPNTNPRP | -0.0164
RRIRSRPPRLPRPRPRPNVLPRP | 0.105
RRIRSRPPRLPRPRPRPNVTPRP | -0.0212
RRIRSRPPRLPRPRPRPNVWPRP | 0.109
RRIRSRPPRLPRPRPRPNYDPRP | -0.247
RRIRSRPPRLPRPRPRPNYEPRP | -0.609
RRIRSRPPRLPRPRPRPPCIPRP | -0.105
RRIRSRPPRLPRPRPRPPDRPRP | 0.643
RRIRSRPPRLPRPRPRPPEAPRP | 0.854
RRIRSRPPRLPRPRPRPPELPRP | 0.629
RRIRSRPPRLPRPRPRPPEWPRP | 0.263
RRIRSRPPRLPRPRPRPPHMPRP | -0.0602
RRIRSRPPRLPRPRPRPPHYPRP | 0.132
RRIRSRPPRLPRPRPRPPIMPRP | -0.0485
RRIRSRPPRLPRPRPRPPIYPRP | -0.0803
RRIRSRPPRLPRPRPRPPMGPRP | -0.0142
RRIRSRPPRLPRPRPRPPMHPRP | 0.25
RRIRSRPPRLPRPRPRPPMVPRP | 0.131

Sequence | shrunken log2 fold change
RRIRSRPPRLPRPRPRPPNTPRP | 0.158
RRIRSRPPRLPRPRPRPPPWPRP | 0.651
RRIRSRPPRLPRPRPRPPPYPRP | 0.337
RRIRSRPPRLPRPRPRPPQCPRP | 0.115
RRIRSRPPRLPRPRPRPPQRPRP | 0.451
RRIRSRPPRLPRPRPRPPSYPRP | -0.555
RRIRSRPPRLPRPRPRPPYGPRP | -0.401
RRIRSRPPRLPRPRPRPQCEPRP | 0.00747
RRIRSRPPRLPRPRPRPQDAPRP | 0.0464
RRIRSRPPRLPRPRPRPQDIPRP | -0.296
RRIRSRPPRLPRPRPRPQDYPRP | -0.356
RRIRSRPPRLPRPRPRPQECPRP | -0.0587
RRIRSRPPRLPRPRPRPQENPRP | -0.0522
RRIRSRPPRLPRPRPRPQERPRP | -0.0153
RRIRSRPPRLPRPRPRPQFDPRP | -0.00423
RRIRSRPPRLPRPRPRPQFEPRP | 0.189
RRIRSRPPRLPRPRPRPQFLPRP | -0.394
RRIRSRPPRLPRPRPRPQFPPRP | -0.00708
RRIRSRPPRLPRPRPRPQGNPRP | -0.679
RRIRSRPPRLPRPRPRPQHNPRP | -0.628
RRIRSRPPRLPRPRPRPQHPPRP | -0.239
RRIRSRPPRLPRPRPRPQKAPRP | 0.091
RRIRSRPPRLPRPRPRPQKEPRP | 0.052
RRIRSRPPRLPRPRPRPQNCPRP | 0.0871
RRIRSRPPRLPRPRPRPQNQPRP | -0.455

Sequence | shrunken log2 fold change
RRIRSRPPRLPRPRPRPQQWPRP | -0.175
RRIRSRPPRLPRPRPRPQRRPRP | 0.21
RRIRSRPPRLPRPRPRPQSWPRP | 0.722
RRIRSRPPRLPRPRPRPQTIPRP | -0.502
RRIRSRPPRLPRPRPRPQWMPRP | -0.155
RRIRSRPPRLPRPRPRPQWVPRP | 0.0964
RRIRSRPPRLPRPRPRPQYCPRP | -0.0172
RRIRSRPPRLPRPRPRPRAFPRP | 0.304
RRIRSRPPRLPRPRPRPRANPRP | 0.174
RRIRSRPPRLPRPRPRPRCCPRP | -0.00537
RRIRSRPPRLPRPRPRPRCQPRP | 0.0737
RRIRSRPPRLPRPRPRPREGPRP | 2.98
RRIRSRPPRLPRPRPRPREHPRP | 0.152
RRIRSRPPRLPRPRPRPRFLPRP | 0.159
RRIRSRPPRLPRPRPRPRHDPRP | 0.23
RRIRSRPPRLPRPRPRPRHYPRP | -0.172
RRIRSRPPRLPRPRPRPRKHPRP | 0.0783
RRIRSRPPRLPRPRPRPRLIPRP | 0.288
RRIRSRPPRLPRPRPRPRLWPRP | 0.397
RRIRSRPPRLPRPRPRPRPQPRP | 0.72
RRIRSRPPRLPRPRPRPRQEPRP | -0.0798
RRIRSRPPRLPRPRPRPRQGPRP | 0.185
RRIRSRPPRLPRPRPRPRRCPRP | 0.359
RRIRSRPPRLPRPRPRPRRSPRP | 0.181
RRIRSRPPRLPRPRPRPRSMPRP | -0.0644

Sequence | shrunken log2 fold change
RRIRSRPPRLPRPRPRPRSNPRP | -0.186
RRIRSRPPRLPRPRPRPRTFPRP | 0.00214
RRIRSRPPRLPRPRPRPRTVPRP | 0.106
RRIRSRPPRLPRPRPRPRYGPRP | 0.0513
RRIRSRPPRLPRPRPRPRYMPRP | -0.664
RRIRSRPPRLPRPRPRPSAHPRP | 0.0639
RRIRSRPPRLPRPRPRPSCTPRP | -0.0382
RRIRSRPPRLPRPRPRPSDAPRP | 0.0409
RRIRSRPPRLPRPRPRPSDHPRP | -0.555
RRIRSRPPRLPRPRPRPSEFPRP | -0.306
RRIRSRPPRLPRPRPRPSGHPRP | -0.433
RRIRSRPPRLPRPRPRPSGPPRP | 0.0577
RRIRSRPPRLPRPRPRPSGQPRP | -0.0423
RRIRSRPPRLPRPRPRPSHCPRP | 0.079
RRIRSRPPRLPRPRPRPSIDPRP | -0.536
RRIRSRPPRLPRPRPRPSKSPRP | -0.361
RRIRSRPPRLPRPRPRPSLSPRP | -0.0859
RRIRSRPPRLPRPRPRPSLWPRP | 0.122
RRIRSRPPRLPRPRPRPSMLPRP | -0.3
RRIRSRPPRLPRPRPRPSMSPRP | 0.0307
RRIRSRPPRLPRPRPRPSPMPRP | -0.132
RRIRSRPPRLPRPRPRPSQFPRP | -0.345
RRIRSRPPRLPRPRPRPSQIPRP | -0.0773
RRIRSRPPRLPRPRPRPSRQPRP | -0.447
RRIRSRPPRLPRPRPRPSSSPRP | -0.353

Sequence | shrunken log2 fold change
RRIRSRPPRLPRPRPRPSTFPRP | -0.109
RRIRSRPPRLPRPRPRPTAQPRP | 0.405
RRIRSRPPRLPRPRPRPTAYPRP | -0.00955
RRIRSRPPRLPRPRPRPTCPPRP | 0.0454
RRIRSRPPRLPRPRPRPTDAPRP | 0.236
RRIRSRPPRLPRPRPRPTDRPRP | 0.000994
RRIRSRPPRLPRPRPRPTENPRP | 0.148
RRIRSRPPRLPRPRPRPTFDPRP | 0.0254
RRIRSRPPRLPRPRPRPTFNPRP | -0.366
RRIRSRPPRLPRPRPRPTHQPRP | 0.417
RRIRSRPPRLPRPRPRPTICPRP | -0.126
RRIRSRPPRLPRPRPRPTKKPRP | 0.0472
RRIRSRPPRLPRPRPRPTLIPRP | -0.0693
RRIRSRPPRLPRPRPRPTMEPRP | 0.317
RRIRSRPPRLPRPRPRPTPNPRP | 0.306
RRIRSRPPRLPRPRPRPTQPPRP | 0.215
RRIRSRPPRLPRPRPRPTQWPRP | 0.354
RRIRSRPPRLPRPRPRPTSWPRP | 0.239
RRIRSRPPRLPRPRPRPTTTPRP | 0.0739
RRIRSRPPRLPRPRPRPTVMPRP | 0.00504
RRIRSRPPRLPRPRPRPTWDPRP | 0.53
RRIRSRPPRLPRPRPRPTWFPRP | -0.216
RRIRSRPPRLPRPRPRPTWQPRP | 0.0157
RRIRSRPPRLPRPRPRPTYQPRP | -0.0198
RRIRSRPPRLPRPRPRPTYSPRP | -0.453

Sequence | shrunken log2 fold change
RRIRSRPPRLPRPRPRPVANPRP | 0.152
RRIRSRPPRLPRPRPRPVCEPRP | 0.369
RRIRSRPPRLPRPRPRPVCYPRP | -0.268
RRIRSRPPRLPRPRPRPVDGPRP | 0.826
RRIRSRPPRLPRPRPRPVDIPRP | 0.147
RRIRSRPPRLPRPRPRPVDQPRP | 0.034
RRIRSRPPRLPRPRPRPVFNPRP | -0.709
RRIRSRPPRLPRPRPRPVGDPRP | 0.0704
RRIRSRPPRLPRPRPRPVHAPRP | 0.214
RRIRSRPPRLPRPRPRPVHHPRP | 0.0874
RRIRSRPPRLPRPRPRPVHRPRP | -0.0285
RRIRSRPPRLPRPRPRPVIKPRP | -0.476
RRIRSRPPRLPRPRPRPVMEPRP | -0.0868
RRIRSRPPRLPRPRPRPVMQPRP | 0.138
RRIRSRPPRLPRPRPRPVMTPRP | -0.0963
RRIRSRPPRLPRPRPRPVPCPRP | -0.226
RRIRSRPPRLPRPRPRPVPWPRP | 0.212
RRIRSRPPRLPRPRPRPVQYPRP | -0.00908
RRIRSRPPRLPRPRPRPVRWPRP | 0.893
RRIRSRPPRLPRPRPRPVSCPRP | -0.00594
RRIRSRPPRLPRPRPRPVSPPRP | 0.155
RRIRSRPPRLPRPRPRPVTGPRP | 0.255
RRIRSRPPRLPRPRPRPVTQPRP | 0.168
RRIRSRPPRLPRPRPRPVTVPRP | -0.057
RRIRSRPPRLPRPRPRPVVMPRP | 0.0334
